Results reported in paper PMC1920236 (Nucleic Acids Research, 2007).
Residue numbers refer to the chain shown, from its start. Numbers in names are those of the source. Read-outs that look alike come from different tables or passages of the source.

Columns and labels:
IRF-3 2D = target: T1, IRF-3 2D (UniProt Q14653 1-427, S396D;S398D); test: fluorescence anisotropy
T1 sequence: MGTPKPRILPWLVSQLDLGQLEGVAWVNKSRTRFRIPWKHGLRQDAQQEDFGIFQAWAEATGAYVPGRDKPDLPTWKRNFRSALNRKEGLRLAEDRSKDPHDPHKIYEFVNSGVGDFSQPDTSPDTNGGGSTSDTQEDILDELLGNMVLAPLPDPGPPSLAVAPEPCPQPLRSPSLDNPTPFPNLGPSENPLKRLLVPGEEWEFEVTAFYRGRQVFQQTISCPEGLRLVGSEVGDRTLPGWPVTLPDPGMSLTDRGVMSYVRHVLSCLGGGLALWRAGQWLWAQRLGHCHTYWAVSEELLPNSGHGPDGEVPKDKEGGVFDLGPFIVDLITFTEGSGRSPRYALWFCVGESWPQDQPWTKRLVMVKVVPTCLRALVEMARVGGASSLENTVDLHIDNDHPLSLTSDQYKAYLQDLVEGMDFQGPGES

IRF-3 WT = target: T2, IRF-3 WT (UniProt Q14653 1-427); test: fluorescence anisotropy
T2 sequence: T1 sequence with D396S, D398S

IRF-3 5D [1] = target: T3, IRF-3 5D (UniProt Q14653 1-427, S396D;S398D;S402D;T404D;S405D); test: fluorescence anisotropy
T3 sequence: T1 sequence with S402D, T404D, S405D

IRF-3 5D [2] = target: T3, IRF-3 5D; test: fluorescence anisotropy; remark: listed apart in the source
native gel or EMSA = target: the molecule itself; test: native gel or EMSA

B1: PRDIII-PRDI 26-bp (dsDNA)
DNA 1: GCGAACTGAAAGGGAGAAGTGAAAGT
DNA 2: ACTTTCACTTCTCCCTTTCAGTTCGC
Work on B1 yielded a Kd (IRF-3 2D) of 1300 ± 15 nM, a Kd (IRF-3 WT) of 1230 ± 15 nM and a Kd (IRF-3 5D [1]) of 5.8 ± 0.8 nM.

B2: PRDI 13-bp (dsDNA)
DNA 1: GAGAAGTGAAAGT
DNA 2: ACTTTCACTTCTC
In the case of B2, the Kd (IRF-3 2D) is reported as 900 ± 15 nM, the Kd (IRF-3 WT) is reported as 800 ± 17 nM and the Kd (IRF-3 5D [2]) is reported as 1200 ± 20 nM.

B3: IRF-3 5D phosphomimetic mutant (S396D, S398D, S402D, T404D and S405D) (natural protein)
chain: T1 sequence with S402D, T404D, S405D
B3 was tested, and the “stoichiometry N” value (native gel or EMSA) was 2.
